Laboratory results: patent publication US20220331457A1 (TELIX INTERNATIONAL, published 2022)
Where a chain is given by its changes, count along the chain named. Names and notes keep the numbering of the source. Each block holds one binder with its values, some of them ahead of it.

Key:
[1] = biological target: T1, human carbonic anhydrase IX (CAIX) (human, UniProt Q16790 38-414); assay: competition ELISA on coated CAIX; competitor: biotinylated chimeric Girentuximab IgG1
Description: CAIX was diluted in 1×PBS to 0.5 μg/ml and 100 μl/well was coated overnight at 4° C. on a 96-well ELISA plate. The following day, the plate was washed 3× with 1×PBS/0.05% Tween (PBST) and blocked with 200 μl of 2% BSA/PBS for one hour at room temperature.
After washing the plate 3× with PBS-T, 100 μl of chimeric/test antibody mix was added to the ELISA plate.
For colour development, the plate was washed 3× with PBS-T following which 100 μl of TMB substrate was added and incubated for approximately five minutes at room temperature. The reaction was stopped with 50 μl of 3.0 M hydrochloric acid and absorbance was read immediately using a Dynex plate reader at 450 nm.

[2] = biological target: T1, human carbonic anhydrase IX (CAIX); assay: SPR (Biacore T200), multicycle kinetics; purified antibody captured on Protein G chip, CAIX as analyte
Description: (§1) The purified antibodies were diluted to a concentration of 1 μg/ml in HBS-P+. […] Following capture, the surface was allowed to stabilise. Kinetic data was obtained using a flow rate of 30 μl/min to minimise any potential mass transfer effects. For the kinetics analysis, carbonic anhydrase IX (CAIX) was used. Multiple repeats of the blank (CAIX) and a repeat of a single concentration of the analyte were programmed into the kinetic run in order to check the stability of both the surface and analyte over the kinetic cycles. For kinetic analysis, a two-fold dilution range was selected from 50 nM to 0.078 nM CAIX. The association phase of CAIX was monitored for 280 seconds and the dissociation phase was monitored for 300 seconds. Regeneration of the Protein G surface was conducted using an injection of 10 mM glycine-HCL pH 1.5 followed by an injection of 10 mM glycine-HCL pH 1.5 containing 0.5% P20. The signal from the reference channel Fc1 was subtracted from that of Fc2, Fc3 and Fc4 to correct for differences in non-specific binding to a reference surface, and a global Rmax parameter was used in the 1-to-1 binding model. The relative KD was calculated by dividing the KD of the humanised variants by that of the chimeric antibody on the same chip.

[3] = biological target: T1, human carbonic anhydrase IX (CAIX); assay: Biacore multicycle kinetic analysis (conclusion of Example 1)
Description: as §1

[4] = biological target: T1, human carbonic anhydrase IX (CAIX); assay: Biacore multicycle analysis and competition ELISA (conclusion of Example 1)
[5] = biological target: T1, human carbonic anhydrase IX (CAIX); assay: SPR (Biacore T200), multicycle kinetics; purified CHO-expressed antibody captured on Protein G chip, CAIX as analyte
Description: as §1

[6] = biological target: T1, human carbonic anhydrase IX (CAIX); assay: SPR (Biacore T200), single cycle kinetics; antibody in HEK EBNA supernatant captured on Protein G chip, CAIX as analyte
Description: All single cycle kinetic experiments were run at 25° C. with HBS-P+ running buffer (pH 7.4) (GE Healthcare, Little Chalfont, UK). For direct comparison, all antibodies were captured on a Protein G chip (GE Healthcare, Uppsala, Sweden).
Antibodies were diluted in running buffer to a final concentration of 0.5 μg/ml, based on concentrations assessed by ELISA titre. At the start of each cycle, antibodies were loaded onto Fc2, Fc3 and Fc4 of the Protein G chip (GE Healthcare, Little Chalfont, UK). IgGs were captured at a flow rate of 10 μl/min to give an immobilisation level (RL) of ˜79 RU, the theoretical value to obtain an Rmax of ˜50 RU. The surface was then allowed to stabilise. Single cycle kinetic data was obtained with Carbonic Anhydrase IX (CAIX, Stratech, Newmarket, UK) as the analyte at a flow rate of 30 μl/min to minimise any potential mass transport limitations. […] The signal from the reference channel Fc1 (no antibody) was subtracted from that of Fc2, Fc3 and Fc4 to correct for differences in non-specific binding to a reference surface. […] The association phase for the four injections of increasing concentrations of CAIX was monitored for 200 seconds each time and a single dissociation phase was measured for 300 seconds following the last injection of CAIX. Regeneration of the Protein G surface was conducted using an injection of 10 mM glycine-HCL pH 1.5 followed by an injection of 10 mM glycine-HCL pH 1.5 containing 0.5% P20.

relative IC50 (IC50 of the variant divided by IC50 of the Girentuximab chimeric IgG1 antibody on the same plate) [1]: ≤ 2 fold
relative KD (KD of the variant divided by KD of the chimeric antibody on the same chip) [2]: ≤ 2 fold
B1: Chimeric Girentuximab (VH0/Vκ0) IgG1 (H310A, H435Q) (antibody)
heavy: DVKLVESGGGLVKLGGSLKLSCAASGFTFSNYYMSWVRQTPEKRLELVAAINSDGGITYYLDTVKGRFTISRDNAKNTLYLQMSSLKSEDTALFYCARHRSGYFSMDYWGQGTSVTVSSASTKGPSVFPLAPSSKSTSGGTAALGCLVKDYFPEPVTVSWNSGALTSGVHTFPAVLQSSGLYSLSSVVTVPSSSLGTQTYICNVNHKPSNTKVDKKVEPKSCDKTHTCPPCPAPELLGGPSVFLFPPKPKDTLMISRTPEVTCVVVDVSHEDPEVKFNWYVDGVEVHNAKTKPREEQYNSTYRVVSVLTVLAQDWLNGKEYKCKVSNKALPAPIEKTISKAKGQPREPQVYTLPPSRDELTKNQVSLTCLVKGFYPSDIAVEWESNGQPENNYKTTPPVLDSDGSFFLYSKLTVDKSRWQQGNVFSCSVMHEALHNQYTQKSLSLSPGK
light: DIVMTQSQRFMSTTVGDRVSITCKASQNVVSAVAWYQQKPGQSPKLLIYSASNRYTGVPDRFTGSGSGTDFTLTISNMQSEDLADFFCQQYSNYPWTFGGGTKLEIKRTVAAPSVFIFPPSDEQLKSGTASVVCLLNNFYPREAKVQWKVDNALQSGNSQESVTEQDSKDSTYSLSSTLTLSKADYEKHKVYACEVTHQGLSSPVTKSFNRGEC
notes: Chimeric antibody on the FcRn-null IgG1 backbone; also called chimeric IgG1 (H310A, H435Q)

relative IC50 (IC50 of the variant divided by IC50 of the Girentuximab chimeric IgG1 antibody on the same plate) [1]: ≤ 2 fold
relative KD (KD of the variant divided by KD of the chimeric antibody on the same chip) [2]: ≤ 2 fold
B2: Chimeric Girentuximab (VH0/Vκ0) IgG4 (S228P, L235E, H310A, H435Q) (antibody)
heavy: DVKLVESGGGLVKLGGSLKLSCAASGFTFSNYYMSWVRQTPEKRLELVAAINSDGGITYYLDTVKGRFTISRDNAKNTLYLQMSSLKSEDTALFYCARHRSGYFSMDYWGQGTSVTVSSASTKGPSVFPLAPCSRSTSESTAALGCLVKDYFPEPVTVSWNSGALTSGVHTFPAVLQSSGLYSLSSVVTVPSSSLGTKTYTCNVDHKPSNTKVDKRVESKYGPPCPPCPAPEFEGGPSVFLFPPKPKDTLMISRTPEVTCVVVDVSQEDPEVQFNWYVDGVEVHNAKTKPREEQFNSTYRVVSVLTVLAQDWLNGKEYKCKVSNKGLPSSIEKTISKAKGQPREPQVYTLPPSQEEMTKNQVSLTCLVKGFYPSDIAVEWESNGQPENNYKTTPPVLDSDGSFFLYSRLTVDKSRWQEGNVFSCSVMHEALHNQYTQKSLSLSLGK
light: B1 light
notes: Chimeric antibody on the FcRn- and FcRγ-null IgG4 backbone; also called chimeric IgG4 (S228P, L235E, H310A, H435Q)

binding relative to VH0/Vκ0 with the same IgG backbone [3]: ≤ 2 fold
binding relative to the IgG1 chimeric antibody [4]: ≤ 2 fold
relative IC50 (IC50 of the variant divided by IC50 of the Girentuximab chimeric IgG1 antibody on the same plate) [1]: ≤ 2 fold
relative KD (KD of the variant divided by KD of the chimeric antibody on the same chip) [2]: ≤ 2 fold
relative KD (KD of the variant divided by KD of the chimeric antibody with the same IgG constant domain) [5]: ≤ 2 fold
relative KD (against the reference chimeric VH0/Vκ0 IgG1) [6]: ≤ 2 fold
B3: Girentuximab humanised VH4/Vκ3 IgG1 (antibody)
heavy: not shown
light: DIQMTQSPSSLSASVGDRVTITCKASQNVVSAVAWYQQKPGQAPRLLIYSASNRYTGVPDRFSGSGSGTDFTLTISSLQAEDLADYFCQQYSNYPWTFGGGTKVEIKRTVAAPSVFIFPPSDEQLKSGTASVVCLLNNFYPREAKVQWKVDNALQSGNSQESVTEQDSKDSTYSLSSTLTLSKADYEKHKVYACEVTHQGLSSPVTKSFNRGEC

binding relative to VH0/Vκ0 with the same IgG backbone [3]: ≤ 2 fold
relative KD (KD of the variant divided by KD of the chimeric antibody with the same IgG constant domain) [5]: ≤ 2 fold
B4: Girentuximab humanised VH4/Vκ4 IgG4 (S228P, L235E, H310A, H435Q) (antibody)
heavy: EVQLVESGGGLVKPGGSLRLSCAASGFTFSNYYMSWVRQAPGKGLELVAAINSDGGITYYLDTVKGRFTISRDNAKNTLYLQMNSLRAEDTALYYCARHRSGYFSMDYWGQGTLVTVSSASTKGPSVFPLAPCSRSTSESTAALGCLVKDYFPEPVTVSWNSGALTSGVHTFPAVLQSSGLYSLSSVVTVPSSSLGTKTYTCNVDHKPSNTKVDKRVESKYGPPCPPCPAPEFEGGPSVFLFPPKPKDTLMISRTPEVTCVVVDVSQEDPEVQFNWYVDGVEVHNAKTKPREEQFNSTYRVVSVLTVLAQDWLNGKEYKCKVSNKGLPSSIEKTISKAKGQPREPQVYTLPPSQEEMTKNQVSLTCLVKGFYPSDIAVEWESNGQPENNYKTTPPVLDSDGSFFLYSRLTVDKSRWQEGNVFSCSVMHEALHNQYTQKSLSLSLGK
light: B3 light with F87Y

binding relative to the IgG1 chimeric antibody [4]: ≤ 2 fold
relative IC50 (IC50 of the variant divided by IC50 of the Girentuximab chimeric IgG1 antibody on the same plate) [1]: ≤ 2 fold
relative KD (KD of the variant divided by KD of the chimeric antibody on the same chip) [2]: ≤ 2 fold
relative KD (against the reference chimeric VH0/Vκ0 IgG1) [6]: ≤ 2 fold
B5: Girentuximab humanised VH3/Vκ3 IgG1 (antibody)
heavy: not shown
light: B3 light

binding relative to the IgG1 chimeric antibody [4]: ≤ 2 fold
relative IC50 (IC50 of the variant divided by IC50 of the Girentuximab chimeric IgG1 antibody on the same plate) [1]: ≤ 2 fold
relative KD (KD of the variant divided by KD of the chimeric antibody on the same chip) [2]: ≤ 2 fold
relative KD (against the reference chimeric VH0/Vκ0 IgG1) [6]: ≤ 2 fold
B6: Girentuximab humanised VH4/Vκ2 IgG1 (antibody)
heavy: not shown
light: B3 light with Q3V, S63T

binding result [6]: binds
B7: Girentuximab humanised VH3/Vκ5 IgG1 (antibody)
heavy: not shown
light: B3 light with L46R, F87Y

binding relative to VH0/Vκ0 with the same IgG backbone [3]: ≤ 2 fold
binding relative to the IgG1 chimeric antibody [4]: ≤ 2 fold
relative IC50 (IC50 of the variant divided by IC50 of the Girentuximab chimeric IgG1 antibody on the same plate) [1]: ≤ 2 fold
relative KD (KD of the variant divided by KD of the chimeric antibody on the same chip) [2]: ≤ 2 fold
relative KD (KD of the variant divided by KD of the chimeric antibody with the same IgG constant domain) [5]: ≤ 2 fold
relative KD (against the reference chimeric VH0/Vκ0 IgG1) [6]: ≤ 2 fold
B8: Girentuximab humanised VH3/Vκ4 IgG1 (antibody)
heavy: not shown
light: B3 light with F87Y

binding relative to VH0/Vκ0 with the same IgG backbone [3]: ≤ 2 fold
relative KD (KD of the variant divided by KD of the chimeric antibody with the same IgG constant domain) [5]: ≤ 2 fold
B9: Girentuximab humanised VH4/Vκ3 IgG1 (H310A, H435Q) (antibody)
heavy: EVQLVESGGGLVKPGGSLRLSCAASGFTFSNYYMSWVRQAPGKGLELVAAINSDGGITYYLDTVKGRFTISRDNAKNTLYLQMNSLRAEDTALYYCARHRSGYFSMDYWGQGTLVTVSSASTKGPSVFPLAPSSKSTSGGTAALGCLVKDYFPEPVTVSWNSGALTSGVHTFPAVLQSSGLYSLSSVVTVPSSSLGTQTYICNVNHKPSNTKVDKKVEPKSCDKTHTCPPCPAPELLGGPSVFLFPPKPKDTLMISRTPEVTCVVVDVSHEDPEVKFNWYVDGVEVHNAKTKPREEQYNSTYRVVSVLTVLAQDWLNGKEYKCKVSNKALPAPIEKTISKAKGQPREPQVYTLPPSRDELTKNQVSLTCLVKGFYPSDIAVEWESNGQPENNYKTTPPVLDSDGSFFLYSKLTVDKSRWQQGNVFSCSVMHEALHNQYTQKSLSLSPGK
light: B3 light

relative KD (against the reference chimeric VH0/Vκ0 IgG1) [6]: ≤ 2 fold
B10: Girentuximab humanised VH4/Vκ1 IgG1 (antibody)
heavy: not shown
light: B3 light with Q3V, S10F, R45K, S63T, A80S

binding result [6]: binds
B11: Girentuximab humanised VH5/Vκ3 IgG1 (antibody, V domains shown)
VH: EVQLVESGGGLVKPGGSLRLSCAASGFTFSNYYMSWVRQAPGKGLEWVAAINSDGGITYYLDTVKGRFTISRDNAKNTLYLQMNSLRAEDTALYYCARHRSGYFSMDYWGQGTLVTVSS
VL: DIQMTQSPSSLSASVGDRVTITCKASQNVVSAVAWYQQKPGQAPRLLIYSASNRYTGVPDRFSGSGSGTDFTLTISSLQAEDLADYFCQQYSNYPWTFGGGTKVEIKR

relative KD (against the reference chimeric VH0/Vκ0 IgG1) [6]: ≤ 2 fold
B12: Girentuximab humanised VH1/Vκ3 IgG1 (antibody, V domains shown)
VH: B11 VH with E1D, Q3K, W47L, N84S, R87K, A88S, L114S
VL: B11 VL

binding relative to VH0/Vκ0 with the same IgG backbone [3]: ≤ 2 fold
relative KD (KD of the variant divided by KD of the chimeric antibody with the same IgG constant domain) [5]: ≤ 2 fold
B13: Girentuximab humanised VH3/Vκ4 IgG4 (S228P, L235E, H310A, H435Q) (antibody)
heavy: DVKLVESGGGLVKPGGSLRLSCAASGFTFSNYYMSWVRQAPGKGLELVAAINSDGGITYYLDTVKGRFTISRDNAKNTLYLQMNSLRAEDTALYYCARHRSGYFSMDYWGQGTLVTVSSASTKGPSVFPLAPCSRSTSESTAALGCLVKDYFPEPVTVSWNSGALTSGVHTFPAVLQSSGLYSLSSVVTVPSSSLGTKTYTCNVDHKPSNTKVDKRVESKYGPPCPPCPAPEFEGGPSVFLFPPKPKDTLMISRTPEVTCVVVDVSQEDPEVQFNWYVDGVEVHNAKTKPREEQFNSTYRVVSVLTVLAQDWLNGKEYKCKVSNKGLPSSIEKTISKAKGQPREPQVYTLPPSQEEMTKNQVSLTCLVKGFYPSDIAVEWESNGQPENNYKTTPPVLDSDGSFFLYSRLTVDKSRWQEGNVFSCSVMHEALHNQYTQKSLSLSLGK
light: B3 light with F87Y

binding result [6]: binds
B14: Girentuximab humanised VH5/Vκ4 IgG1 (antibody, V domains shown)
VH: B11 VH
VL: B11 VL with F87Y

binding relative to VH0/Vκ0 with the same IgG backbone [3]: ≤ 2 fold
binding relative to the IgG1 chimeric antibody [4]: ≤ 2 fold
relative IC50 (IC50 of the variant divided by IC50 of the Girentuximab chimeric IgG1 antibody on the same plate) [1]: ≤ 2 fold
relative KD (KD of the variant divided by KD of the chimeric antibody on the same chip) [2]: ≤ 2 fold
relative KD (KD of the variant divided by KD of the chimeric antibody with the same IgG constant domain) [5]: ≤ 2 fold
relative KD (against the reference chimeric VH0/Vκ0 IgG1) [6]: ≤ 2 fold
B15: Girentuximab humanised VH4/Vκ4 IgG1 (antibody)
heavy: not shown
light: B3 light with F87Y

binding relative to VH0/Vκ0 with the same IgG backbone [3]: ≤ 2 fold
relative KD (KD of the variant divided by KD of the chimeric antibody with the same IgG constant domain) [5]: ≤ 2 fold
B16: Girentuximab humanised VH3/Vκ4 IgG1 (H310A, H435Q) (antibody)
heavy: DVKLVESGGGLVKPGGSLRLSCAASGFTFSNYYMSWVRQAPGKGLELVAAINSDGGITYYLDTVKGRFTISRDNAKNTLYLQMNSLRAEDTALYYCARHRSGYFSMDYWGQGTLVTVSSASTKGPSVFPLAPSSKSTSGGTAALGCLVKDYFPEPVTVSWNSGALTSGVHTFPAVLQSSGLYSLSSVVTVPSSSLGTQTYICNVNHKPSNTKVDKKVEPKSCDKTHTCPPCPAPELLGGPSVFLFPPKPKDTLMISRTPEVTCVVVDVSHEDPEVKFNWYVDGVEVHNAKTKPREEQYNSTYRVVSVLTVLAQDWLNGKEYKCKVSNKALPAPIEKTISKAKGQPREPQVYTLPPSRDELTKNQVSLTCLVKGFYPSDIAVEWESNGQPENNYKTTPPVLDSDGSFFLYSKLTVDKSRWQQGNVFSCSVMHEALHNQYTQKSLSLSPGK
light: B3 light with F87Y

binding result [6]: binds
B17: Girentuximab humanised VH5/Vκ1 IgG1 (antibody, V domains shown)
VH: B11 VH
VL: B11 VL with Q3V, S10F, R45K, S63T, A80S

binding relative to VH0/Vκ0 with the same IgG backbone [3]: ≤ 2 fold
relative KD (KD of the variant divided by KD of the chimeric antibody with the same IgG constant domain) [5]: ≤ 2 fold
B18: Girentuximab humanised VH4/Vκ3 IgG4 (S228P, L235E, H310A, H435Q) (antibody)
heavy: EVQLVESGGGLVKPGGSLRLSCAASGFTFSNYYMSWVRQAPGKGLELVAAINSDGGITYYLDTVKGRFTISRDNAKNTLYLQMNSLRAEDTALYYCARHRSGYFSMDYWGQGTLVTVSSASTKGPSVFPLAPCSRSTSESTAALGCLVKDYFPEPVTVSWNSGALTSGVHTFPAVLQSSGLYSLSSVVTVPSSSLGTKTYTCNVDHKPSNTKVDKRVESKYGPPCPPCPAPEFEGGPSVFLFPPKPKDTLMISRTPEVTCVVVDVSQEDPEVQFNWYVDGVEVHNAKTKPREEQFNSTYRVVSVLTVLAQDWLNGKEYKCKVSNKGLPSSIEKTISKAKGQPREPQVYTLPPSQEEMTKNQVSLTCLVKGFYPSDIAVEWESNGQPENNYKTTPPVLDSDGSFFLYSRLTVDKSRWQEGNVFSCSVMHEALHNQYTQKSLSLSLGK
light: B3 light

relative KD (against the reference chimeric VH0/Vκ0 IgG1) [6]: ≤ 2 fold
B19: Girentuximab humanised VH1/Vκ1 IgG1 (antibody, V domains shown)
VH: B11 VH with E1D, Q3K, W47L, N84S, R87K, A88S, L114S
VL: B11 VL with Q3V, S10F, R45K, S63T, A80S

binding result [6]: binds
B20: Girentuximab humanised VH5/Vκ5 IgG1 (antibody, V domains shown)
VH: B11 VH
VL: B11 VL with L46R, F87Y

binding relative to the IgG1 chimeric antibody [4]: ≤ 2 fold
relative IC50 (IC50 of the variant divided by IC50 of the Girentuximab chimeric IgG1 antibody on the same plate) [1]: ≤ 2 fold
relative KD (KD of the variant divided by KD of the chimeric antibody on the same chip) [2]: ≤ 2 fold
relative KD (against the reference chimeric VH0/Vκ0 IgG1) [6]: ≤ 2 fold
B21: Girentuximab humanised VH3/Vκ2 IgG1 (antibody)
heavy: not shown
light: B3 light with Q3V, S63T

relative KD (against the reference chimeric VH0/Vκ0 IgG1) [6]: ≤ 2 fold
B22: Girentuximab humanised VH1/Vκ2 IgG1 (antibody, V domains shown)
VH: B11 VH with E1D, Q3K, W47L, N84S, R87K, A88S, L114S
VL: B11 VL with Q3V, S63T

binding result [6]: binds
B23: Girentuximab humanised VH1/Vκ5 IgG1 (antibody, V domains shown)
VH: B11 VH with E1D, Q3K, W47L, N84S, R87K, A88S, L114S
VL: B11 VL with L46R, F87Y

binding result [6]: binds
B24: Girentuximab humanised VH5/Vκ2 IgG1 (antibody, V domains shown)
VH: B11 VH
VL: B11 VL with Q3V, S63T

binding relative to VH0/Vκ0 with the same IgG backbone [3]: ≤ 2 fold
relative KD (KD of the variant divided by KD of the chimeric antibody with the same IgG constant domain) [5]: ≤ 2 fold
B25: Girentuximab humanised VH4/Vκ4 IgG1 (H310A, H435Q) (antibody)
heavy: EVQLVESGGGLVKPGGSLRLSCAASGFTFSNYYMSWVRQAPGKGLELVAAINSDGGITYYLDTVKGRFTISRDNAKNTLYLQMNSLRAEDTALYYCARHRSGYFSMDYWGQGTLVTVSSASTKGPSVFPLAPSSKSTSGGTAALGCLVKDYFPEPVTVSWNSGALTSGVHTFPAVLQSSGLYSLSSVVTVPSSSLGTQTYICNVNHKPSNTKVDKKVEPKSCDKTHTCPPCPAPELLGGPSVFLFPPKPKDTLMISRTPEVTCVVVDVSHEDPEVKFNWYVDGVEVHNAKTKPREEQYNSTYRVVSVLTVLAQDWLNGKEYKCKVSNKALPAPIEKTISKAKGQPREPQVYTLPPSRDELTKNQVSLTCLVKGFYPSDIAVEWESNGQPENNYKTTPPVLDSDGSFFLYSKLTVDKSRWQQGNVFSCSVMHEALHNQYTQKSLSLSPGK
light: B3 light with F87Y

relative KD (against the reference chimeric VH0/Vκ0 IgG1) [6]: ≤ 2 fold
B26: Girentuximab humanised VH1/Vκ4 IgG1 (antibody, V domains shown)
VH: B11 VH with E1D, Q3K, W47L, N84S, R87K, A88S, L114S
VL: B11 VL with F87Y

relative KD (against the reference chimeric VH0/Vκ0 IgG1) [6]: ≤ 2 fold
B27: Girentuximab humanised VH3/Vκ1 IgG1 (antibody)
heavy: not shown
light: B3 light with Q3V, S10F, R45K, S63T, A80S

binding result [6]: binds
B28: Girentuximab humanised VH4/Vκ5 IgG1 (antibody)
heavy: not shown
light: B3 light with L46R, F87Y
